Three proteins from US20050142568 can be followed below.

One data set concerns the target T1, His6CPS-6, Q95NM6.
T1 chain: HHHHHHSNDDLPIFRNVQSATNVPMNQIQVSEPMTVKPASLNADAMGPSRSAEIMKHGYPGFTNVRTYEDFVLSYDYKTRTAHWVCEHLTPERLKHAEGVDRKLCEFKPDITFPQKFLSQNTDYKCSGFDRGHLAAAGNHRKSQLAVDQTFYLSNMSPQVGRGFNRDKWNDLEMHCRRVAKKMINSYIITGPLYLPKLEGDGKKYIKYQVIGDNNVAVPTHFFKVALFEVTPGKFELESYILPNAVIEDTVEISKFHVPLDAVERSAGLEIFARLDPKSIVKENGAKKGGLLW

Data set [1] has as its target T2, ^35S-Methionine labeled CRN-1, Q9N3T2.
T2 chain: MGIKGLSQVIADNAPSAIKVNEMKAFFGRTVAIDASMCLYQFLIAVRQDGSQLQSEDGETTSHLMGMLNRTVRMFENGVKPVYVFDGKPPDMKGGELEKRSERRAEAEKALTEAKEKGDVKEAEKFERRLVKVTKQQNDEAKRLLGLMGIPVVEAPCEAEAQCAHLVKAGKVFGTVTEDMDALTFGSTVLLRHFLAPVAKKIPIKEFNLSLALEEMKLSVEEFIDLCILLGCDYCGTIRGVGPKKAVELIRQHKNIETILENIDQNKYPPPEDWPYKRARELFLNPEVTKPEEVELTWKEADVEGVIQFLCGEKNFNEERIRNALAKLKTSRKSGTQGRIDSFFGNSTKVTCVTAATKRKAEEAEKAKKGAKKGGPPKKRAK

B1: CRN-1-His6 (protein)
chain: MGIKGLSQVIADNAPSAIKVNEMKAFFGRTVAIDASMCLYQFLIAVRQDGSQLQSEDGETTSHLMGMLNRTVRMFENGVKPVYVFDGKPPDMKGGELEKRSERRAEAEKALTEAKEKGDVKEAEKFERRLVKVTKQQNDEAKRLLGLMGIPVVEAPCEAEAQCAHLVKAGKVFGTVTEDMDALTFGSTVLLRHFLAPVAKKIPIKEFNLSLALEEMKLSVEEFIDLCILLGCDYCGTIRGVGPKKAVELIRQHKNIETILENIDQNKYPPPEDWPYKRARELFLNPEVTKPEEVELTWKEADVEGVIQFLCGEKNFNEERIRNALAKLKTSRKSGTQGRIDSFFGNSTKVTCVTAATKRKAEEAEKAKKGAKKGGPPKKRAKHHHHHH
Turning to B1, in the data set with His6CPS-6, Q95NM6, the “nuclease activity (plasmid cleavage assay)” value was “complete plasmid degradation and approximately 500% increase in nuclease activity”.

B2: CRN-1(DY-AA) (protein)
chain: MGIKGLSQVIADNAPSAIKVNEMKAFFGRTVAIDASMCLYQFLIAVRQDGSQLQSEDGETTSHLMGMLNRTVRMFENGVKPVYVFDGKPPDMKGGELEKRSERRAEAEKALTEAKEKGDVKEAEKFERRLVKVTKQQNDEAKRLLGLMGIPVVEAPCEAEAQCAHLVKAGKVFGTVTEDMDALTFGSTVLLRHFLAPVAKKIPIKEFNLSLALEEMKLSVEEFIDLCILLGCAACGTIRGVGPKKAVELIRQHKNIETILENIDQNKYPPPEDWPYKRARELFLNPEVTKPEEVELTWKEADVEGVIQFLCGEKNFNEERIRNALAKLKTSRKSGTQGRIDSFFGNSTKVTCVTAATKRKAEEAEKAKKGAKKGGPPKKRAK
For B2, in the data set with His6CPS-6, Q95NM6, the “CPS-6 nuclease activity (plasmid cleavage assay)” value is reported as “continuing enhancement of CPS-6 nuclease activity, though less potently than the wild type CRN-1 protein”.

B3: full-length ^35S-methionine labeled CPS-6 (protein)
chain: MIGKVAGTAAIAGISFLAGKYSNDDLPIFRNVQSATNVPMNQIQVSEPMTVKPASLNADAMGPSRSAEIMKHGYPGFTNVRTYEDFVLSYDYKTRTAHWVCEHLTPERLKHAEGVDRKLCEFKPDITFPQKFLSQNTDYKCSGFDRGHLAAAGNHRKSQLAVDQTFYLSNMSPQVGRGFNRDKWNDLEMHCRRVAKKMINSYIITGPLYLPKLEGDGKKYIKYQVIGDNNVAVPTHFFKVALFEVTPGKFELESYILPNAVIEDTVEISKFHVPLDAVERSAGLEIFARLDPKSIVKENGAKKGGLLW
Consider B3, for which, in data set [1], the “gap-dependent endonuclease activity of CRN-1” value is reported as “it enhanced the gap-dependent endonuclease activity of CRN-1 by more than 200%”.
